Tested on: MS2 coat protein
Assay: apparent KD of MS2 coat protein; designed switch direction (-1 OFF switch, 1 ON switch): -1; higher = weaker reporter binding
Outline: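 Each step of the titration lasted 0.8–1.5 h at the lowest concentration and 10–20 min at the highest. The protein, SNAP-549-labelled MS2 coat protein, went from 0.7 or 1.5 nM doubling to 3 µM over RNA switches transcribed on Illumina chips by stalled E. coli RNA polymerase. Normalised cluster fluorescence was curve-fitted, and the per-design median over clusters is given as apparent KD.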

[1] = Eterna round: R95, input ligand: FMN 200 uM
[2] = Eterna round: R95, input ligand: microRNA oligo, concentration not stated
[3] = Eterna round: R95, input ligand: none
[4] = input ligand: microRNA oligo, concentration not stated

Sequence | apparent KD of MS2 coat protein [1] | apparent KD of MS2 coat protein [2] | apparent KD of MS2 coat protein [3] | apparent KD of MS2 coat protein (input ligand: FMN 200 uM) | apparent KD of MS2 coat protein (input ligand: none) | apparent KD of MS2 coat protein [4]
GGAAGAAUGAGUAGUCCUCAUUGAAGAGAAUAGUAAGAAACAUGAGGAUCACCCAUGUAAGAACAAGCUUUUGCUCA [JR_Sv3TOV2_Sub003] (puzzle: Sensor v3, turn-off variant 2) | 227 nM | 85 nM | 179 nM |  |  | 
AUGACCUAAGGAUAUACAUGAGGAUCACCCAUGUCAGGUAAGCCUGUCCGCGGUGCAUGUAGAAGGUAGCUACC [EX3 A.27] (Eterna round: R97, puzzle: Exclusion 3) |  |  |  | 122 nM | 116 nM | 
UUGAUGUCAUCAGGAUAUAGUAUUUAAGACAUAUCUUCUUUCAAACAUGAGGAUCACCCAUGUCGCUAGAAGGGAUGAAUGAUU [JR_ExcNG2_Sub085] (Eterna round: R96, puzzle: Exclusion NG 2) |  |  |  |  |  | 12.1 nM
AAGUACCGUCACGAUAGUGAUGGUACAACAAGCAAGUGUACAUGAGGAUCACCCAUGUCCUCUUUUGCUCGUCUUAU [Sensor 3 - 95] (puzzle: Sensor v3, turn-off variant 2) | 19.7 nM | 16.9 nM | 18.6 nM |  |  | 
UCUCGGUAAGGAUAUGCGCCGGGAUGAAGAUCCCGAAGCAUGCAGAAGGUACAUGAGGAUCACCCAUGUCUGUU [Eternabot (L1) Solution 76] (Eterna round: R97, puzzle: Exclusion 4) |  |  |  | 47.2 nM | 20.5 nM | 
GAGGUGUUAGGAUAUCGGAGAUGGAGAAGAACGGGAAGAGCCGAGAAGGAACAUGAGGAUCACCCAUGUAGGUG [JR_Exclu4_Sub030] (puzzle: Exclusion 4) | 326 nM | 270 nM | 696 nM |  |  | 
AGUAACUAUCACGAAAGUGAUAGUUACACAAGCAGUGAAACAUGAGGAUCACCCAUGUCCUCAAUUGCUCGUCUUAU [Sensor 3 - 31] (puzzle: Sensor v3, turn-off variant 2) | 47.8 nM | 194 nM | 49.6 nM |  |  | 
AGAUGGCGAGGAUAUACAUGAGGAUCACCCAUGUGAGAAGAUAAAGUGAGGAAGAAAAGUAGAAGGCGCUGUCA [Mat - Exclusion 3 - Mod of Salish D23] (puzzle: Exclusion 3) | 68.3 nM | 44.9 nM | 45.1 nM |  |  | 
AGCAAGUUAAGGUUGAUGCACAUGAGGAUCACCCAUGUUCGUCUUACAUGGAAAGUGGACGCGUUUAUGGAAAGGAG [Eternabot (L2) Solution 36] (Eterna round: R97, puzzle: Sensor, turn-off variant 1) |  |  |  | 28.2 nM | 28.2 nM | 
GUGUAACAAGGAUAUACAUGAGGAUCACCCAUGUGAAUAAGAUUGAAUAAGAUAAAGUGUAGAAGGUGUAGUGU [Excluse me!!! 9 - Jieux - Exclusion 3] (puzzle: Exclusion 3) | 32.5 nM | 31.6 nM | 37.1 nM |  |  | 
AAGCAGUCAGGAUAUCGUUAAUUUAGUUGUUUGUAUUAGUUCGAGAAGGGACAUGAGGAUCACCCAUGUAUGAA [Ex4 #42] (Eterna round: R97, puzzle: Exclusion 4) |  |  |  | 51.5 nM | 48.3 nM | 
UUUUUUGUUUUUUUUACAAGCUUUUUGCUCGUCUUAUUAACAUGAGGAUCACCCAUGUCAAAGAGACCUCAUGUAUU [Sensor v3 - turn-off variant 2 - 1] (puzzle: Sensor v3, turn-off variant 2) | 91.2 nM | 15.7 nM | 207 nM |  |  | 
GGUGGACAUGAGGAUCACCCAUGUGAGGAUAUCGGCUAUCUUAUCGCUGUCGGUUGCUCGAGAAGGCACAUUGU [Exclusion 1 V96] (puzzle: Exclusion 1) |  | 71.2 nM |  |  |  | 
AAUAACAAGCCGAUCCUUCACAUGAGGAUCACCCAUGUGUUCGUCUUGUAAAGUACUAUCACGAAAGUGAUAGUACA (Eterna round: R97, puzzle: Sensor, turn-off variant 1) |  |  |  | 18 nM | 19.1 nM | 
AGUACUAACACGACAGUGUUAGUACAAUAAGCUUGUGAAACAUGAGGAUCACCCAUGUCCUCAUAAGCUCGUCUUAU [salish99_TOv2_r3_031] (Eterna round: R96, puzzle: Sensor v3, turn-off variant 2) |  |  |  | 15.4 nM | 17.2 nM | 431 nM
GUUGACGGAGGAUAUACAGCCGAGAUCCACCGUGUGGAGGAACAUGAGGAUCACCCAUGUAGAAGGCUGCAGUA [Eternabot (L2) Solution 92] (Eterna round: R97, puzzle: Exclusion 2) |  |  |  | 16 nM | 17.1 nM | 
CUUAGACAUGAGGAUCACCCAUGUGAGGAUAUGAAAUUAAUUAAUUAUUAAUUAUUAAUCAGAAGGCACAUAUG [Mat - Mod of Hyphema D38] (puzzle: Exclusion 1) | 79.8 nM | 43.6 nM | 41.3 nM |  |  | 

Sequence | apparent KD of MS2 coat protein [1] | apparent KD of MS2 coat protein [2] | apparent KD of MS2 coat protein [3] | apparent KD of MS2 coat protein (input ligand: FMN 200 uM) | apparent KD of MS2 coat protein (input ligand: none) | apparent KD of MS2 coat protein [4]
AUUGUAUGAGGAUAUACACCAGUGGGAGUGUCUUGCGUGAUACAUGAGGAUCACCCAUGUAGAAGGCGUACUAC [Eternabot (L2) Solution 90] (Eterna round: R97, puzzle: Exclusion 2) |  |  |  | 36.9 nM | 16 nM | 
AAAGAAGAGAGAAAACAACACAUGAGGAUCACCCAUGUGAGAAGAUGAGGGUGAUACAGGCUAUAUGCUCGUCUUAU (puzzle: Sensor v3, turn-off variant 1) | 55 nM | 281 nM | 52.4 nM |  |  | 
AGCUGUGGCCGAGGAUAUACAUGAGGAUCACCCAUGUUACAUAAUUAGGCCUGGUAACAGGCUCCGUAGAAGGCGGUCUCAGCA [Eli eng2 - 005] (Eterna round: R96, puzzle: Exclusion NG 2) |  |  |  | 13 nM | 15.3 nM | 11.4 nM
UUUCUCUGGGCGUCUUCUUACAUGAGGAUCACCCAUGUUUCGCAGGAUAUGCUAUAGUGUUAGAUGCAGAAGGGCGUUUGUUUU [JR_ExcNG3_Sub079] (Eterna round: R96, puzzle: Exclusion NG 3) |  |  |  | 262 nM | 92.5 nM | 85.8 nM
GGGCUCGGUCUUCCGGCUGGGUCCACAUGAGGAUCACCCAUGUAGGAUAUCCCGGCUGCCGGCCGGGAGAAGGGCGUGUGUUUC [-39.8, -36.9 kcal, 14% A] (Eterna round: R96, puzzle: Exclusion NG 3) |  |  |  | 22.6 nM | 21.5 nM | 13.3 nM
UACGGUCCUAACAUGAGGAUCACCCAUGUAACAAAAGAAACCUAGGAUAUCCGCGCCGGAAGGAAGGAGAAGGAGGGCGUGGCA [Ededti] (Eterna round: R96, puzzle: Exclusion NG 3) |  |  |  | 50.7 nM | 51.8 nM | 34.3 nM
AGGUCACAUGAGGAUCACCCAUGUGAGGAUAUUUACUCAAGAGCUUCGGCUCUCAGGUGAAGAAGGCGCAAUGA [EX1 #54] (Eterna round: R97, puzzle: Exclusion 1) |  |  |  | 27.2 nM | 30 nM | 
CAUAGUUACUCAGGAUAUCAUACAUGAGGAUCACCCAUGUAAUAAAUGAGAAUUUCGAAUGUAUAUGAGAAGGGAGAAAUCUAC [Ostracism 59 - Jieux - Exclusion NG 2] (Eterna round: R96, puzzle: Exclusion NG 2) |  |  |  | 69.2 nM | 22.6 nM | 13.4 nM
UUAUUAAUUAAGACUGCAAGAUCACAUGAGGAUCACCCAUGUCAGGAUAUCAGCUCGAUUAGAGCUGAGAAGGGACAAGCAGUC [ExNG3/15-A1] (Eterna round: R96, puzzle: Exclusion NG 3) |  |  |  | 334 nM | 99.6 nM | 112 nM
UCAAGUAUGUAGGAUAUCGAUGUCUACGGACAUCGAGAAGGACGUACAUGAGGAUCACCCAUGUAACUUGCAUG [Exclusion 6 - B - 10:d] (Eterna round: R96, puzzle: Exclusion 6) |  |  |  | 238 nM | 283 nM | 144 nM
CCAAGCUUGUUCAUUAACCACAUGAGGAUCACCCAUGUCUUGGCAAUUAUGACUUGCCCGUCAGGUGCUCGUCUUAU [Sensor-V1 #35] (Eterna round: R97, puzzle: Sensor, turn-off variant 1) |  |  |  | 65.5 nM | 71.3 nM | 
CCGAAAAGGAAGGAUAUGCUAGACGAAAGUCUAGCAGAAGGUCCUACAUGAGGAUCACCCAUGUGGUCCUUCGG [Mat - Exclusion 6 - Eli Mod - D35] (Eterna round: R97, puzzle: Exclusion 6) |  |  |  | 1730 nM | 448 nM | 
AGAUGUUAAGAGGAUAUCAGCCAAAACCGGCAGUGAGAAGGCUUGACAUGAGGAUCACCCAUGUUUUGCGGUAA [Islalaus] (Eterna round: R97, puzzle: Exclusion 6) |  |  |  | 397 nM | 38.6 nM | 
GAUCCACAUGAGGAUCACCCAUGUUAGGAUAUUCAGCCUUGGUCACGGGAGUCAGGGCGGAGAAGGAACCCUUU [Eternabot (L2) Solution 16] (Eterna round: R97, puzzle: Exclusion 1) |  |  |  | 14.4 nM | 13 nM | 
GCUGCGCGAGGAUAUGCGGUUUGCGCUGUGGCCCGUGGCGUACAUGAGGAUCACCCAUGUAGAAGGCGUGUGGG [Apr-15 SS2-55] (puzzle: Exclusion 2) |  | 18.6 nM |  |  |  | 
GACUAGGCAGGAUAUACAUGAGGAUCACCCAUGUGUCUGCGUUGGGCACGUGAACACCGUAGAAGGGCCUUGAC [ChP 13.04.2015 #14] (Eterna round: R96, puzzle: Exclusion 3) |  |  |  | 36.4 nM | 20.2 nM | 16.2 nM
